By Km is commonly meant the concentration of substrate that gives half-maximal velocity. One may read the kcat as the number of substrate molecules converted per active site and unit of time at saturation.

For one data set, the system named is T1, AfLuc.
T1 construct: codon-optimised synthetic gene in pET21b, E. coli BL21, Ni-NTA purified
Kind of data set: luminescence steady-state kinetics, global numerical analysis. Format: biochemical, Amphiura filiformis. The note with it: 25 nM protein.

Substrate in data set [1]: Oc1ccc(Cc2nc3c(Cc4ccccc4)nc(-c4ccc(O)cc4)cn3c2O)cc1
The description is as above. It counts as biochemical, Renilla reniformis. To be noted: 25 nM protein.

Turning to `Oc1ccc(Cc2nc3c(Cc4ccccc4)nc(-c4ccc(O)cc4)cn3c2O)cc1` [coelenterazine], the Km in the data set on AfLuc was 1.21 ± 0.03 µM.

B1: RLuc (Renilla reniformis) (protein)
chain: MTSKVYDPEQRKRMITGPQWWARCKQMNVLDSFINYYDSEKHAENAVIFLHGNAASSYLWRHVVPHIEPVARCIIPDLIGMGKSGKSGNGSYRLLDHYKYLTAWFELLNLPKKIIFVGHDWGACLAFHYSYEHQDKIKAIVHAESVVDVIESWDEWPDIEEDIALIKSEEGEKMVLENNFFVETMLPSKIMRKLEPEEFAAYLEPFKEKGEVRRPTLSWPREIPLVKGGKPDVVQIVRNYNAYLRASDDLPKMFIESDPGFFSNAIVEGAKKFPNTEFVKVKGLHFSQEDAPDEMGKYIKSFVERVLKNEQ
notes: codon-optimised synthetic gene in pET21b, E. coli BL21, Ni-NTA purified
For B1, in data set [1], the Km is given as 0.91 ± 0.05 µM and the kcat is 4.2 ± 0.2 s⁻¹.

Source of the values: publication PMC12059646, “Functional Characterization of Luciferase in a Brittle Star Indicates Parallel Evolution Influenced by Genomic Availability of Haloalkane Dehalogenase” (Molecular Biology and Evolution, 2025).
